Publication PMC2440601

B1: ALDH1 (cytosolic aldehyde dehydrogenase, ALDH1A1) (Homo sapiens) (protein)
chain: SSSGTPDLPVLLTDLKIQYTKIFINNEWHDSVSGKKFPVFNPATEEELCQVEEGDKEDVDKAVKAARQAFQIGSPWRTMDASERGRLLYKLADLIERDRLLLATMESMNGGKLYSNAYLNDLAGCIKTLRYCAGWADKIQGRTIPIDGNFFTYTRHEPIGVCGQIIPWNFPLVMLIWKIGPALSCGNTVVVKPAEQTPLTALHVASLIKEAGFPPGVVNIVPGYGPTAGAAISSHMDIDKVAFTGSTEVGKLIKEAAGKSNLKRVTLELGGKSPCIVLADADLDNAVEFAHHGVFYHQGQCCIAASRIFVEESIYDEFVRRSVERAKKYILGNPLTPGVTQGPQIDKEQYDKILDLIESGKKEGAKLECGGGPWGNKGYFVQPTVFSNVTDEMRIAKEEIFGPVQQIMKFKSLDDVIKRANNTFYGLSAGVFTKDIDKAITISSALQAGTVWVNCYGVVSAQCPFGGFKMSGNGRELGEYGFHEYTEVKTVTVKISQKNS
B2: ALDH2 (mitochondrial aldehyde dehydrogenase) (Homo sapiens) (protein)
chain: SAAATQAVPAPNQQPEVFCNQIFINNEWHDAVSRKTFPTVNPSTGEVICQVAEGDKEDVDKAVKAARAAFQLGSPWRRMDASHRGRLLNRLADLIERDRTYLAALETLDNGKPYVISYLVDLDMVLKCLRYYAGWADKYHGKTIPIDGDFFSYTRHEPVGVCGQIIPWNFPLLMQAWKLGPALATGNVVVMKVAEQTPLTALYVANLIKEAGFPPGVVNIVPGFGPTAGAAIASHEDVDKVAFTGSTEIGRVIQVAAGSSNLKRVTLELGGKSPNIIMSDADMDWAVEQAHFALFFNQGQCCCAGSRTFVQEDIYDEFVERSVARAKSRVVGNPFDSKTEQGPQVDETQFKKILGYINTGKQEGAKLLCGGGIAADRGYFIQPTVFGDVQDGMTIAKEEIFGPVMQILKFKTIEEVVGRANNSTYGLAAAVFTKDLDKANYLSQALQAGTVWVNCYDVFGAQSPFGGYKMSGSGRELGEYGLQAYTEVKTVTVKVPQKNS

Tests used:
purified protein [1] = substrate: CC=O; assay: purified protein; format: biochemical, Homo sapiens; conditions: NAD+
purified protein [2] = substrate: CC(=O)Oc1ccc([N+](=O)[O-])cc1; assay: purified protein

Protein	Km (purified protein [1]) [µM]	Vmax (purified protein [1]) [µmol/min/mg]	Km (purified protein [2]) [µM]	Vmax (purified protein [2]) [µmol/min/mg]
B1	200 ± 14	1.06 ± 0.02	0.69 ± 0.03	0.155
B2	0.33 ± 0.005	4 ± 0.03	0.18 ± 0.01	0.21
